The test system of series [1] is src-, raf-, ras- and HPV-transformed CREF cells. As to the kind of experiment: Luciferase reporter assay of p-CCN1-luc and/or TPA in transformed CREF cells. Type of series: cell-based, rat. Particulars: for effect on expression of the tCCN1-Prom: TPA 200 ng/ml. On the procedure:
FIGS. 1A and B. tCCN1 promoter activity in Prostate cancer (PC) and cloned rat embryo fibroblast (CREF) series of cell lines. […] B. src-, raf-, ras- and HPV-transformed CREF cells were treated with p-CCN1-luc and/or TPA (200 ng/ml).
For orientation: In a reporter assay the amount or activity of a reporter protein is the signal.

In series [2] the test system is prostate cancer cells lines DU-145, PC-3, ARCaP, ARCaP-E, ARCaP-M and normal human prostate epithelial cell lines RWPE-1 and P69. As to the kind of experiment: Dual-luciferase reporter assay of promoter activity (pCCN1-luc vs pPEG-luc). Type of series: cell-based. Particulars: pGL3-luc reporter, normalized with pRL-TK. An excerpt:
FIGS. 1A and B. tCCN1 promoter activity in Prostate cancer (PC) and cloned rat embryo fibroblast (CREF) series of cell lines. A. Prostate cancer DU-145, PC-3, ARCaP, ARCaP-E, and ARCaP-M cells and normal RWPE-1 and P69 cells were transfected with pGL3-luc reporter vector driven by PEG-Prom (pPEG-luc) or tCCN1-Prom (pCCN1-luc). pRL-TK (Renilla luciferase) was co-transfected for the normalization of luciferase activity, and the luminescence readings were plotted as relative luminescence units (RLU). *(p<0.05), **(p<0.01) and ***(p<0.001) indicates the statistical significance by using t-test between pPEG-luc and pCCN1-luc transfected cells. B. src-, raf-, ras- and HPV-transformed CREF cells were treated with p-CCN1-luc and/or TPA (200 ng/ml). The results were recorded as RLU. *(p<0.05) and **(p<0.01) indicates the statistical significance between pCCN1-luc and pCCN1-luc plus TPA treated cells.
Prostate cancer cells were plated at seeding density of 30,000 cells/well in quadruplicate in 24-well cell culture plate. After 24 h, cells were transfected with either pGL3.PEG-luc or pGL3.CCN1-hie using Fugene® HD transfection reagent (Promega, Madison, Wis., USA). […] Cells were lysed after 48 h of post transfection and luminescence was studied using Dual-luciferase Reporter® Assay system (Promega) with luminometer. […]

Series [3] relates to breast, brain (including Glioblastoma multiforme, GBM) and melanoma. As to the kind of experiment: tCCN1-Prom expression in additional human cancers vs normal counterparts (data not shown). It is filed as cell-based.

For `CCCCCCCCCCCCCC(=O)O[C@@H]1[C@@H](C)[C@@]2(O)[C@@H](C=C(CO)C[C@]3(O)C(=O)C(C)=C[C@@H]23)[C@@H]2C(C)(C)[C@]12OC(C)=O` [TPA], the “effect on expression of the tCCN1-Prom” value in series [1] is “increased the expression of the tCCN1-Prom”.

On to `Nc1ncnc2c1ncn2[C@@H]1O[C@@H]2COP(=O)(O)O[C@H]2[C@H]1O` [cyclic adenosine mono-phosphate (AMP), cyclic adenosine mono-phosphate], for which the “effect on expression of the tCCN1-Prom” value in series [1] is reported as “increased the expression of the tCCN1-Prom”.

B1: tCCN1-Prom: truncated CCN1 cancer selective promoter, SEQ ID NO: 1; tested in reporter plasmid pGL3.CCN1-luc (pCCN1-luc) (nucleic acid)
DNA: TCCAAAAACAAACAAGTACAACATACCCAAAAGAGGGAAGGGCTGGAGGAGTGGGGGAGACCTCTGCCTGGGAATTTGCCAGACGATGGGCAAGTTTCCCCCCGCCCCACCCCCCCCCCCGCCTTTTCATTCATAAATGCCACTGTGGGTATTAATTTGCAATTCACTGAACTTTGCTAATAAACATCATGCCAAAGCTTTGGGACTTGTTCCGAACACGCCTCTTTGAAGTCCACAAATATTCCTGACTCAGAGACACACTCCTCTTCCCCGTTCTACTCTTTCAACAGATAACTTGCCTCTCACCTTCGCTGTAAAAAAGCAAACAGCTCACTGCCTTCCCGGGTGAGGGCTTCAGTGGCTGCCCGGTCAACTCGCATCACCAAACAAAACGACTTTTGTTCCTCCCTCTCAGGTCCTCCCACCCACCCAGTCCAGGCAAAGTTCTGAACTGGCCCCCTCGCCCCTCACGACCCTCCAACTACCATCACCACCATCACGCCCCAAAGAACCCTTCCCAACATAAGTCGTAATTTAAGGTGGAAAAAACGAACTGTTTTCTTGACGGGTCTGGGACACACACACACACACACACACACACACACACCGAACTGTTTTCTTGACGGGTCTGGGAGACACACACACACACACACACACACACACACACACACACACACACACAAAGGTGCAATGGGGCCAGGGGAGGCGCTTGGCAGCAGCCCGCGCCAACCAGCATTCCTGAGATGTTTGAGAATTCTGGAACGCGCAGACAGAGCCGACGTCACTGCAACACGCGGCGCCTCCGCCGGCCCGTATAAAAGGCGGGCTCCGGGGCGCC
modifications: Synthetic promoter
As for B1, the “tCCN1-Prom activity compared with PEG-Prom (relative luminescence units)” value in series [2] was “more active than the PEG-Prom in prostate cancer cells as compared to normal counterparts RWPE-1 and P69”. Also, in series [3], the “tCCN1-Prom expression in additional human cancers vs normal counterparts” value was “elevated expression in additional human cancers vs. normal immortal or primary normal counterparts”. For the same molecule, in series [1] (src-, raf-, ras- and HPV-transformed CREF cells), the “tCCN1-Prom activity in transformed CREF cells” value is “elevated as a function of transformation of CREF cells by diverse acting oncogenes”.

Values taken from US9750823B2, “Use of a truncated CCN1 promoter for cancer diagnostics, therapeutics and theranostics” (priority 2013, dated 2017).
